Consider 1 molecule from patent US9200265B2, “Anti-cocaine compositions and treatment” (priority 2006, dated 2015).

Read-outs that look alike come from different tables or passages of the source.

Series [1] is described as follows: Time-dependent inactivation of CocE in vitro (incubation at temperature, then activity).
Protocol: For time-dependent inactivation of CocE in vitro, purified CocE enzyme (at 250 ng/ml) was incubated in assay buffer in the absence of cocaine at 37° C. for various times. Following incubation at 37° C. the samples were placed on ice. To assess the effect of temperature on CocE activity, samples were incubated with (−) cocaine at various concentrations as indicated at a final enzyme concentration of 125 ng/ml. The rate of decay of (−)-cocaine at A240 was measured on a multiplate reader.
A short description of series [2]: Ex vivo cocaine degradation by CocE in human plasma (HPLC tandem MS).
The nature of series [3]: Melting temperature by circular dichroism (near-UV). In kind it is physicochemical. Here is the method: Plasmids containing the mutations were transformed into E. coli BL21 cells and IPTG-induced enzyme was purified on Ni-Agarose. Expressed proteins were then tested for enzymatic activity and for thermostability at 37° C. Enzyme activity was measured using the spectrophotometric assay as described in Example 1. Thermostability was also tested via the spectrophotometric assay by pre-incubation of both wild-type and mutants at 37° C. for various times. Additionally, the nature of the thermo-instability of both the wild-type and T172R mutant was analyzed by polyacrylamide gel electrophoresis under denaturing and non-denaturing conditions. Briefly, mutant and wild-type enzyme at 0.1 mg/ml were incubated at 37° C. for various time-points, cooled to 4° C., mixed with SDS-loading dye containing-mercaptoethanol and run on 10% SDS-PAGE gels (denaturing conditions) or run on native 10% polyacrylamide gels (non-denaturing conditions) at 4° C. Gels were fixed with 10% methanol, 7% acetic acid for 30 minutes, and then stained with Sypro-Ruby protein gel stain (Molecular Probes, Invitrogen) for 3 hours. Protein staining was visualized under UV-light using an AlphaImager™ 3400 (Alpha Innotech). Finally, the exact melting temperature of both the wild-type and T172R mutant were determined by circular dichroism using a JASCO-810 spectropolarimeter driven by a JASCO V500/FP-750 analysis program for Windows. The CD spectra were measured in millidegrees and normalized against PBS buffer.
In general terms: CD spectra are sensitive to the conformation of chiral molecules.

The nature of series [4]: Cocaine spectrophotometric assay (240 nm), Michaelis-Menten kinetics.
Series [5] can be described thus: Half-life of CocE in rat plasma. In kind it is in vitro ADME. On the procedure: CocE's protective effects were eliminated when rats were treated 100 min prior to cocaine. This time-dependent effect is most likely due to the thermal deactivation of the enzyme in vivo.
For series [6], the system named is WIN 35065-2 induced toxicity. The experiment in a line: WIN 35065-2 induced lethality in rats. As to conditions: 1.0 mg CocE i.v. one minute after 560 mg/kg WIN-35065-2 i.p.
For series [7] the following is noted: cited from earlier work.
Setting [8] is: purified wild-type, cocaine, PBS pH 7.4.

B1: CocE: wild-type cocaine esterase of Rhodococcus sp. MB 1, SEQ ID NO: 1, Accession No. AF173165 (protein)
chain: MVDGNYSVASNVMVPMRDGVRLAVDLYRPDADGPVPVLLVRNPYDKFDVFAWSTQSTNWLEFVRDGYAVVIQDTRGLFASEGEFVPHVDDEADAEDTLSWILEQAWCDGNVGMFGVSYLGVTQWQAAVSGVGGLKAIAPSMASADLYRAPWYGPGGALSVEALLGWSALIGTGLITSRSDARPEDAADFVQLAAILNDVAGAASVTPLAEQPLLGRLIPWVIDQVVDHPDNDESWQSISLFERLGGLATPALITAGWYDGFVGESLRTFVAVKDNADARLVVGPWSHSNLTGRNADRKFGIAATYPIQEATTMHKAFFDRHLRGETDALAGVPKVRLFVMGIDEWRDETDWPLPDTAYTPFYLGGSGAANTSTGGGTLSTSISGTESADTYLYDPADPVPSLGGTLLFHNGDNGPADQRPIHDRDDVLCYSTEVLTDPVEVTGTVSARLFVSSSAVDTDFTAKLVDVFPDGRAIALCDGIVRMRYRETLVNPTLIEAGEIYEVAIDMLATSNVFLPGHRIMVQVSSSNFPKYDRNSNTGGVIAREQLEEMCTAVNRIHRGPEHPSHIVLPIIKR
modifications: Rhodococcus sp. MB1
Take B1: the “t1/2 of CocE” value is listed as “greater than 6 months” in series [1] (at 4° C.) and “approximately 15 minutes” in series [1] (at 37° C.). Also, the “decrease of cocaine levels compared with vehicle-treated plasma” value in series [2] (human plasma 37° C., 300 μM cocaine, 0.05 mg/ml CocE, within 1 min) is listed as “at least 100 fold”. Also, the “cocaine level after esterase” value in series [2] (human plasma 37° C., 300 μM cocaine, 2-minute timepoint) is on record as “below 1 microM”. Also, the “cocaine concentration after esterase” value in series [2] (human plasma 37° C., 300 μM cocaine, within 1 min) was “approximately 2 μM”. Moreover, the “cocaine concentrations in serum metabolized” value in series [2] (in less than one minute (FIG. 15)) was 150 fold. In addition, the detectable denaturation beginning entry in series [3] (near-UV CD) is “approximately 30 °C”. This molecule had a melting temperature in series [3] (near-UV CD (260-320 nm), curve-fitting) of 36.15 °C. For the same molecule, the Km in series [4] (40 min @ 37° C.) is 12.3 µM; in series [4] (no preincubation), 71.8 µM; in series [4] (setting [8]) it was roughly 2 µM; in series [7] (against (-) cocaine), 0.64 µM; in series [7] (purified enzyme, cocaine) it was 0.64 µM. Besides, the results for the Kcat entry in series [4] (setting [8]) and in series [7] (against (-) cocaine) were “approx. 500 min^−1” and 7.8 s⁻¹, respectively. In addition, the half-life entry in series [5] was “about 10 minutes”. Besides, the “lethal effect of WIN 35065-2 under treatment with CocE” value in series [6] is given as “not overcome”. The “kcal (Michaelis-Menten kinetics)” value in series [7] (purified enzyme, cocaine) was 7.2 s⁻¹.

The term Km denotes the substrate concentration at which the rate is half of its maximum.
